The target of this assay is recombinant RBD protein of SARS-CoV (SARS-CoV (2003), strain of the bought …, UniProt P59594). The assay is described as follows: SPR.

B1: S2H97 (antibody, V domains shown)
VH: QVRLVQSGAEVKKSGESLKISCKGSGYSFTSYWIGWVRQMPGKGLEWMGIIYPGDSDTRYSPSFQGQVTISADKSISTVYLQWSSLKASDTAMYYCARQWSHYTYDYYYWGQGTLVTISS
VL: QSVLTQPASVSGSPGQSITISCTGISSDVGGYNSVSWYQQHPGKAPKLMIYDVTNRPSGVSNRFSGSKSGNTASLTISGLQAEDEADYYCSSYTSSSTPPYVFGTGTKVSVL
On to B1, for which the binding result was “binds”.
